One molecule from patent publication US20230025732A1 (INNATE PHARMA, published 2023) can be followed below.

What is called EC50 is the midpoint of the concentration-response curve. A high value points to a less potent agent. The EC50 (read off the curve) is the midpoint of the concentration-response curve. A low value points to higher potency in that assay.

Where a chain is given by its changes, count along the chain named.

The target in test [1] is T1, human CD39 expressed at the cell surface (human, UniProt P49961 1-510).
T1 construct: On CHO transfectants, Hek-293T transfectants, Ramos and Mino tumor cells; also called huCD39; CHO-huCD39
T1 sequence: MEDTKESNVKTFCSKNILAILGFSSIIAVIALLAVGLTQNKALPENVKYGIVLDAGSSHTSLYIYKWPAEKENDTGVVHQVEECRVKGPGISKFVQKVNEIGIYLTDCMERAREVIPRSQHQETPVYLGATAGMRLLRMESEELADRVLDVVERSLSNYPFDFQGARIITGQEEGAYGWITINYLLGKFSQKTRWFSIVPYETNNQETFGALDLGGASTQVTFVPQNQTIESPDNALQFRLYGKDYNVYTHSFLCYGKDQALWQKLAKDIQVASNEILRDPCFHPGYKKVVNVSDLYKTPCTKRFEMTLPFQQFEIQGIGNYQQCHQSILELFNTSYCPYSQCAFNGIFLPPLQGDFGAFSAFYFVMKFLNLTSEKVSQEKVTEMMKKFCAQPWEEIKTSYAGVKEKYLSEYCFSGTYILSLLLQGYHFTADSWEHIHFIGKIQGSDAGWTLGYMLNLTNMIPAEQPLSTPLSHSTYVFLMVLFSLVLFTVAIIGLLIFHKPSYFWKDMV
Put plainly: flow cytometry, Ramos lymphoma cells, first set of experiments; Ramos cells, first set of experiments. As to the method: Cells were incubated with various concentration of unlabeled anti-CD39 antibody from 30 μg/ml to 5×10⁻⁴ μg/ml, for 30 minutes at 4° C. After washes, cells were incubated with Goat anti-mouse H+L labeled secondary antibody for 30 min at 4° C.

Test [2] concerns the target T1, human CD39 expressed at the cell surface. The experiment in a line: flow cytometry titration on Ramos lymphoma cells (Mean of Fluorescence), panels L0, L1 and L1*. A general note: A flow cytometer gives signals particle by particle.
Test [3] addresses T2, Human CD39-L4, also known as NTPDase5 or ENTPD5 (human, UniProt O75356 25-428).
T2 construct: Recombinant protein coated in ELISA
T2 sequence: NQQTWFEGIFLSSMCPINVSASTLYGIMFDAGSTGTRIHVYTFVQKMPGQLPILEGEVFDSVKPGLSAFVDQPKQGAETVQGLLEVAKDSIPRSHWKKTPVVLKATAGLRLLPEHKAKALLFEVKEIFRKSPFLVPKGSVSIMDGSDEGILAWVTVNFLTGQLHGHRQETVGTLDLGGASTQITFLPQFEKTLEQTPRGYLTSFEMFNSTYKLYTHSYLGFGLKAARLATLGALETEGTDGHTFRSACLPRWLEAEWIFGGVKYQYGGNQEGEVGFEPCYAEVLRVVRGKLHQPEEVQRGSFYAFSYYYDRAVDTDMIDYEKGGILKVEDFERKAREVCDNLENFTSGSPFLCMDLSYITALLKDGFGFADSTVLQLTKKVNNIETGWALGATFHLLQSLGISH
Put plainly: ELISA on coated recombinant human CD39-L4, panel huCD39 L4; no legend on the sheet, curve is I-394 by paragraph 85. As to the method: (§1) Wells were washed in TBS Tween 20, and further saturated 2H at RT in TBS Blocking buffer. Dose range concentration of primary antibody was incubated in TBS blocking buffer for 2 h at RT. Wells were washed in TBS Tween 20. […] Optical density was measured on Enspire™ at OD=450.
(An ELISA detects its analyte on a solid surface through an enzyme-linked reagent.)

The target of another test is T3, CD39 mutant 19 (human, UniProt P49961 1-510).
T3 construct: expressed on Hek-293T cells; also called M19
T3 chain: T1 sequence with R138A, M139A, E142K
The experiment in a line: flow cytometry on Hek-293T cells transfected with CD39 mutant 19 (panel M19); antibody concentration not given on the sheet. The text has this: Mutants were transfected in Hek-293T cells, as shown in the table 1, using numbering of SEQ ID NO: 1. […] Mutant 19 includes substitutions at residues R138, M139 and E142.

Test [4] concerns the target T4, Human CD39-L2, also known as NTPDase6 or ENTPD6 (human, UniProt O75354 61-484, limits assumed).
T4 construct: Recombinant protein coated in ELISA
T4 sequence: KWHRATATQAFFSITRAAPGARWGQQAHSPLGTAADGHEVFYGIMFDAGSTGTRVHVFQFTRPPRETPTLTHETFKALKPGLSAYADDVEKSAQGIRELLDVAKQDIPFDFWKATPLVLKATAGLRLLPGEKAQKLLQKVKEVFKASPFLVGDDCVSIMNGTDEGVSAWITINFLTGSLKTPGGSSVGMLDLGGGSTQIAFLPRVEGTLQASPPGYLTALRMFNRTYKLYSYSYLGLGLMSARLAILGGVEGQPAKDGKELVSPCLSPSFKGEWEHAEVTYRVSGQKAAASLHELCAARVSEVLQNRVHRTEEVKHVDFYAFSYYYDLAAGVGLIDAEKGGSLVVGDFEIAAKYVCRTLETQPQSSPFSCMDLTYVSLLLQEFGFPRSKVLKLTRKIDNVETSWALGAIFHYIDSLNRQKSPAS
The experiment in a line: ELISA on coated recombinant human CD39-L2, panel huCD39 L2; no legend on the sheet, curve is I-394 by paragraph 85. As to the method:
as §1

B1: I-394 (antibody, human IgG1, V domains shown)
VH: EVQLQQSGPELVKPGASVKMSCKASGYTFTDYNMHWVKQSHGRTLEWIGYIVPLNGGSTFNQKFKGRATLTVNTSSRTAYMELRSLTSEDSAAYYCARGGTRFAYWGQGTLVTVSA
VL: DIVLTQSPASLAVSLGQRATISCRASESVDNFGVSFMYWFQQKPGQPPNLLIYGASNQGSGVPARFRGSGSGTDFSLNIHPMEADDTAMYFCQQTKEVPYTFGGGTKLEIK
With B1, a half-maximal effect in test [1] (EC50) was put at 0.16 mg/L. For the same molecule, the concentration for a half-maximal effect (EC50 (read off the curve)) in test [2] was around 0.5 mg/L. Moreover, the values for the binding result (in test [3]; in the test with CD39 mutant 19; in test [4]) were “no binding (tested: about 50 µg/ml)”, “no binding” and “no binding (tested: about 50 µg/ml)”, respectively.
